# Assay results published in patent publication US20250215091A1, “Anti-GAL3 Antibodies and Compositions” (Les Laboratoires Servier, priority 2022, published 2025).
# Legend:
# [1] = target: T1, m-Gal3-FL (Mus musculus, UniProt P16110); assay: ELISA dose-response EC50 on mouse Gal3; conditions: ELISA binding on m-Gal3-FL
# T1 construct: made in house
# Protocol: (§1) To determine the half maximal effective concentration (EC50) of the antibodies, ELISA dose-response experiments were performed on Hu-Gal3-FL and on m-Gal3-FL.
# (§2) Hu-Gal3-FL and m-Gal3-FL were immobilized at 3 μg/mL through their His-tag on functionalized microplates as before. A 3.3-fold serial dilution was carried-out with the purified IgGs, added to the wells containing immobilized Hu-Gal3-FL or m-Gal3-FL and detected with an anti-Fab.HRP antibody.
# (§3) Human/mouse Gal3 EC50 ratio were estimated according to EC50 values (sigmoidal dose-response equation: Y=Bottom+X*(Top−Bottom)/(EC50+X)), a low ratio indicating a high cross-reactivity.
# [2] = target: T2, Hu-Gal3-FL (Homo sapiens, UniProt P17931); assay: ELISA dose-response EC50 on human Gal3; conditions: ELISA binding on Hu-Gal3-FL
# T2 construct: made in house
# Protocol: as §1, §2, §3
# [3] = target: T3, murine Gal3 (m-Gal3-FL) (Mus musculus, UniProt P16110); assay: IgG cross-reactivity ELISA on murine Gal3; format: binding; conditions: purified IgGs 15-20 μg/mL; FIG. 3
# T3 construct: Determination of Kd values on human and mouse full-length Gal3; purchased Novalix
# Protocol: (§4) Anti-Gal3 antibodies human/mouse cross-reactivity was tested by ELISA on human Gal3 full-length (Hu-Gal3-FL) and CRD domain (Hu-Gal3-CRD), and on murine Gal3 (m-Gal3-FL).
# (§5) Hu-Gal3-FL, Hu-Gal3-CRD and m-Gal3-FL were immobilized at 3 μg/mL via their histidine tag on functionalized microplates. Purified IgGs were added into the wells (15-20 μg/mL final concentration) and detected with an anti-Fab.HRP antibody. A control rabbit antibody directed against Hu-Gal3 (Abcam ab53082 reference) was used at 5 μg/mL as antigen-coating positive control and detected with an anti-rabbit.HRP secondary antibody (7074S-Cell Signaling reference).
# [4] = test system: human Gal3 full-length (Hu-Gal3-FL) and CRD domain (Hu-Gal3-CRD); assay: IgG cross-reactivity ELISA on human Gal3; format: binding; conditions: purified IgGs 15-20 μg/mL; FIG. 3
# Protocol: as §4, §5
# [5] = target: T4, recombinant human Gal3 full-length (Hu-Gal3-FL) (Homo sapiens, UniProt P17931); assay: SPR (Biacore T-200) affinity on human full-length Gal3; format: binding; conditions: full-length Gal3, 25° C.
# T4 construct: recombinant human Gal3 full-length (Hu-Gal3-FL); purchased Novalix
# Protocol: The interaction of the anti-Gal3 antibody with recombinant human Gal3 full-length (Hu-Gal3-FL) and murine Gal3 (m-Gal3-FL) (from Novalix) was monitored by surface plasmon resonance (SPR) detection using a Biacore T-200 instrument.
# Binding studies were performed in freshly prepared, filtered and degassed running buffer containing 10 mM HEPES, 150 mM NaCl, and 0.05% P20 (HBS-P, Cytiva Life Sciences) at 25° C. Before performing the binding studies, the CM5 sensor surface immobilized with anti-human Fc mAb was equilibrated with HBS-P by priming the instrument at least three to four times.
# The CM5 sensor surface was first immobilized with an anti-human Fc mAb using a standard protocol. The entire sensor surface was first activated by injecting a 1:1 (v/v) mixture of 400 mM EDC and 100 mM NHS at a flow rate of 10 μL/minute for 7 minutes. Monoclonal anti-human Fc antibody (Millipore AP113), 25 μg/mL in Na acetate pH5, 360 s were flowed at 10 μL/minute to reach 10000 RU on both flow cells followed by the injection of 1 M ethanolamine, pH8.5 for 7 minutes at a flow rate of 10 μL/minute. During the entire immobilization procedure, HBS-P was used as the running buffer.
# Antibody samples were prepared at 5 μg/ml and were injected for 30 seconds at 10 μL/minute. In general, 400 to 680 resonance units of antibodies were captured on the chip.
# T1 sequence (P16110 whole entry): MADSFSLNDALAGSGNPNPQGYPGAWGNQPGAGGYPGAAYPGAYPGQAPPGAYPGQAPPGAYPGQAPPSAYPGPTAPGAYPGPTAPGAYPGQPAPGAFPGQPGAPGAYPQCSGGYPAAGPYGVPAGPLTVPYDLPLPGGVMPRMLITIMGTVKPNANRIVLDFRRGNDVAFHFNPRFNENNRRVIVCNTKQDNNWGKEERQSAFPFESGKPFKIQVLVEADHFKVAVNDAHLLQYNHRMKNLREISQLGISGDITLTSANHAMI
# T3 sequence (P16110 whole entry): as above
# T2 sequence (P17931 whole entry): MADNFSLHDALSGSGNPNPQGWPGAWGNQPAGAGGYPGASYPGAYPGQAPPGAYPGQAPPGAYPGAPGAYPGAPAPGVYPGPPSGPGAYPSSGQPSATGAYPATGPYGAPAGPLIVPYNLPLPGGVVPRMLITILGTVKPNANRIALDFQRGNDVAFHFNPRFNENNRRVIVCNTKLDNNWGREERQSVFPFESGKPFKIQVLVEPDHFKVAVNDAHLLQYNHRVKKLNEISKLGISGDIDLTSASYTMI
# Sequence of human Gal3 full-length (Hu-Gal3-FL) and CRD domain (Hu-Gal3-CRD) (P17931 118-250 limits assumed): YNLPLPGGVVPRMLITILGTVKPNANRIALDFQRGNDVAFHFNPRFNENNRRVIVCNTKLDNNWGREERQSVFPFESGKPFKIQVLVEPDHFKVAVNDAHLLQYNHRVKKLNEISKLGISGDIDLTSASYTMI
# T4 sequence (P17931 whole entry): as the sequence (P17931 whole entry) above
mGal3 EC50 [1],hGal3 EC50 [2],"IgG binding to human Gal3 (Hu-Gal3-FL, Hu-Gal3-CRD) by ELISA [4]",Kd [5] [nM],Molecule,IgG binding to murine Gal3 (m-Gal3-FL) by ELISA [3]
too high to be determined,too high to be determined,Lower binding signals,,"B12: anti-Gal3 monoclonal antibody, IgG1 format; VH SEQ ID NO 54, VL SEQ ID NO 55 (antibody, V domains shown, IgG1 constant region) VH: EVQLVESGGSLVKPGGSLRLSCAASGFTFSNDDMNWVRQAPGKGLEWISSIDGSSRSIYYADFVKGRFTISRDNAKNSLYLQMNSLRAEDTAVYYCVRSSGYSGGGMDVWGRGTLVTVSS VL: QSVLTQPASVSGSPGQSITISCAGTSSDVGGSYNVAWYQQHPGKAPKLMIYSDSYRPSGVSNRFSGSKSGNTASLTISGLQAEDEADYYCSSYTSNSARVFGGGTKLEIK",Lower binding signals
too high to be determined,too high to be determined,,,"E12: anti-Gal3 monoclonal antibody, IgG1 format; VH SEQ ID NO 56, VL SEQ ID NO 57 (antibody, V domains shown) VH: EVQLVESGGSLVKPGGSLRLSCAASGFTFSNYAMNWVRQAPGKGLEWISSIYGSSRSIYYADFVKGRFTISRDNAKNSLYLQMNSLRAEDTAVYYCVRSNNAGMDVWGRGTLVTVSS VL: QSVLTQPASVSGSPGQSITISCAGTSSDVGGYYDVSWYQQHPGKAPKLMIYYDSYRPSGVSNRFSGSKSGNTASLTISGLQAEDEADYYCSSYTSYSTRVFGGGTKLEIK",much lower on the m-Gal3 than on the Hu-Gal3-FL and Hu-Gal3-CRD
,,,4.9,"H10-G1: germline framework variant of H10; Table 3 lists H10-G with VH SEQ ID NO 90, VL SEQ ID NO 91 (antibody, V domains shown) VH: EVQLVESGGGLVKPGGSLRLSCAASGFTFSNYYMNWVRQAPGKGLEWISYINGASRDISYADSVKGRFTISRDNAKNSLYLQMNSLRAEDTAVYYCVRSSYGYSNYGSGMDVWGRGTLVTVSS VL: QSALTQPASVSGSPGQSITISCTGTSSDVGGSYNVAWYQQHPGKAPKLMIYNDANRPSGVSNRFSGSKSGNTASLTISGLQAEDEADYYCSSNTADSTRVFGGGTKLEIK",
